From patent US10500249B2, “Compositions and methods for preventing or treating diseases, conditions, or processes characterized by aberrant fibroblast proliferation and extracellular matrix deposition” (MOERAE MATRIX, INC., priority 2014, dated 2019)

How the values were obtained:
Test in all cases: Kinase Profiling Assay
Assay type in all cases: biochemical
Details in all cases: 100 μM
EphA3 (h) = target: T1, EphA3 (h) (Homo sapiens, UniProt P29320)
T1 construct: purchased Millipore
T1 sequence (P29320 21-983): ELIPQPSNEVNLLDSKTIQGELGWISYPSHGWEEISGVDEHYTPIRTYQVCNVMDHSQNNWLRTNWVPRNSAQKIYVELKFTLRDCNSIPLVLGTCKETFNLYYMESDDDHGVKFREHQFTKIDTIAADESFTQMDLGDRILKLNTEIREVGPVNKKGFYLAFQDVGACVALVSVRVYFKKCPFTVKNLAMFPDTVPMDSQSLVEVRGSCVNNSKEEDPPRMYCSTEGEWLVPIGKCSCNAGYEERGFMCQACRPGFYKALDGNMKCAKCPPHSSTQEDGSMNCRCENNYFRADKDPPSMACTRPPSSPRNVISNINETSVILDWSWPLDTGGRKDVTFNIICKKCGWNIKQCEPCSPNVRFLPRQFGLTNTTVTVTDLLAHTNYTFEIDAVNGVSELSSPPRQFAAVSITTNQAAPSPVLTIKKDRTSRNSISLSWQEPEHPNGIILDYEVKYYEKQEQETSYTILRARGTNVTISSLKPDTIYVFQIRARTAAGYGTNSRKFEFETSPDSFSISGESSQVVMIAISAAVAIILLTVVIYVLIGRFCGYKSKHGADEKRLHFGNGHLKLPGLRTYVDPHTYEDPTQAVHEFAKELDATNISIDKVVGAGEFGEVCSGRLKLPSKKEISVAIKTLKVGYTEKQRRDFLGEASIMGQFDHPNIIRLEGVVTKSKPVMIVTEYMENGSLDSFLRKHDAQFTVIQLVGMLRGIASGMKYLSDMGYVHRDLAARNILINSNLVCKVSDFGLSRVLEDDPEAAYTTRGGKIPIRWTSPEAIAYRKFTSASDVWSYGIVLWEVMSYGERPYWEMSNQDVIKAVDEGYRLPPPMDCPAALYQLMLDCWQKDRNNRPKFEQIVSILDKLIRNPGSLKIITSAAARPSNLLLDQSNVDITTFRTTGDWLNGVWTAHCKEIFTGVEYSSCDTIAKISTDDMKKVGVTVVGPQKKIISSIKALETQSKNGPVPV
Procedure, shortened: (§1)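 Kinase inhibition by MK2 inhibitory peptides was profiled radiometrically, with substrate phosphorylation from labeled ATP read by scintillation after capture on a charged filter. Values are relative to 100% activity and measured in duplicate.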

Fyn (h) = target: T2, Fyn (h) (Homo sapiens, UniProt P06241)
T2 construct: purchased Millipore
T2 sequence (P06241 whole entry): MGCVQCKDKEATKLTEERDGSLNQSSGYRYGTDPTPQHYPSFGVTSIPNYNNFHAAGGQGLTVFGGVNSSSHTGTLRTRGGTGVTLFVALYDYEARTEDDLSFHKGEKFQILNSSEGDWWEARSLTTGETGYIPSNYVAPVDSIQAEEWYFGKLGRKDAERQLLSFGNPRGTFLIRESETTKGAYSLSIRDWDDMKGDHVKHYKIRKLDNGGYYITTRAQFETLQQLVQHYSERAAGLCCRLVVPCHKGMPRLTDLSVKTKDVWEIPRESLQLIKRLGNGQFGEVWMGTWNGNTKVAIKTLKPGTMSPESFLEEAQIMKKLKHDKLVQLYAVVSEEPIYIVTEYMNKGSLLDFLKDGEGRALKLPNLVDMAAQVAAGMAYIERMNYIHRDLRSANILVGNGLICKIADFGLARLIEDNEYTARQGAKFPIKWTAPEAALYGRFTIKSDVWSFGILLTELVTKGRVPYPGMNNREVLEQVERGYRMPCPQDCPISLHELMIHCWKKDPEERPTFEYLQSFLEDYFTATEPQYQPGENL
Procedure, shortened: as §1

NLK (h) = target: T3, NLK (h) (Homo sapiens, UniProt Q9UBE8)
T3 construct: purchased Millipore
T3 sequence (Q9UBE8 1-527): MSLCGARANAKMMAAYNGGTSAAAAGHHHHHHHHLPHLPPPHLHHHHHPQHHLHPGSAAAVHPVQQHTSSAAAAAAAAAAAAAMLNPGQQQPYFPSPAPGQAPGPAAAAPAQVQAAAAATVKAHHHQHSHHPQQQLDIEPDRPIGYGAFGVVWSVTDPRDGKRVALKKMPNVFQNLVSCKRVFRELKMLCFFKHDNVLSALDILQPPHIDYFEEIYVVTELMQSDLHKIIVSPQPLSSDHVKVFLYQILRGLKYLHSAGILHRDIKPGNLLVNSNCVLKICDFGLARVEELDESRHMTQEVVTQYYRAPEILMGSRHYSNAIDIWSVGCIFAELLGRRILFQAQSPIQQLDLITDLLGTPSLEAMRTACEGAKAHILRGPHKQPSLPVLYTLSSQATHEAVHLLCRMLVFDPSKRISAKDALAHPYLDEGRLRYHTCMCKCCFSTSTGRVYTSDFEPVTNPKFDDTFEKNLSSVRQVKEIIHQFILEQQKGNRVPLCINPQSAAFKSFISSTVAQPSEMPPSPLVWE
Procedure, shortened: as §1

PAK5 (h) = target: T4, PAK5 (h) (Homo sapiens, UniProt Q9P286)
T4 construct: purchased Millipore
T4 sequence (Q9P286 whole entry): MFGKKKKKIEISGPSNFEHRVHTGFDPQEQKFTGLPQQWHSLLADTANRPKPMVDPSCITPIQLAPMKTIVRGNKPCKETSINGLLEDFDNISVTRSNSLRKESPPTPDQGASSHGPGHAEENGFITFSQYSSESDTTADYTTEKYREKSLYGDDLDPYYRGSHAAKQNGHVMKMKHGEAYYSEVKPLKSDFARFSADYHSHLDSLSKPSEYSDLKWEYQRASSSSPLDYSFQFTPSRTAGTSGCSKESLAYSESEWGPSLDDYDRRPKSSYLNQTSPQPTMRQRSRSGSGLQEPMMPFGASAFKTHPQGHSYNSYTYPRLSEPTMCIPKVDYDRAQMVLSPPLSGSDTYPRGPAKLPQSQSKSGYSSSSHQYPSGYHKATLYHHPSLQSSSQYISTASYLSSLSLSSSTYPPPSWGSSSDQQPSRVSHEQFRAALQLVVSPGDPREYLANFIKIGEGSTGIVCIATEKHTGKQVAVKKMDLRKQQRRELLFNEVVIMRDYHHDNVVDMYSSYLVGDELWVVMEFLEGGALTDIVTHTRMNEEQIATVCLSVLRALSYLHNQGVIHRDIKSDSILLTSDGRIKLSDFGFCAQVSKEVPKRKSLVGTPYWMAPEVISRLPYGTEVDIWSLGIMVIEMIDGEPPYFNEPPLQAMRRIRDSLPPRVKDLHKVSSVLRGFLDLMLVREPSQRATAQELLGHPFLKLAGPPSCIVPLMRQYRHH
Procedure, shortened: as §1

PKBα (h) = target: T5, PKBα (h) (Homo sapiens, UniProt P31749)
T5 construct: purchased Millipore
T5 sequence (P31749 whole entry): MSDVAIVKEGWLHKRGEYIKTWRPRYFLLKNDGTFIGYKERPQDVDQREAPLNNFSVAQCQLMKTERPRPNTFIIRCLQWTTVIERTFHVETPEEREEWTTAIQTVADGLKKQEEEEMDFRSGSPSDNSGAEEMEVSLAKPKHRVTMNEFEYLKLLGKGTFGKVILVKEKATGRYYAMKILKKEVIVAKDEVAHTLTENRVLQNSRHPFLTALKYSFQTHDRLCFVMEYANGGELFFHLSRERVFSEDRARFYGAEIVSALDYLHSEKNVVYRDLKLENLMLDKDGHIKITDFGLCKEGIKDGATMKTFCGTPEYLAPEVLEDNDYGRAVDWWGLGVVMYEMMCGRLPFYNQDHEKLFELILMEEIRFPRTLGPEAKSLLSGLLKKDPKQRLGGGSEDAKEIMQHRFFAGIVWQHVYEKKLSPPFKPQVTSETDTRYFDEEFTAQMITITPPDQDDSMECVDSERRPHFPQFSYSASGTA
Procedure, shortened: as §1

PRAK (h) = target: T6, PRAK (h) (Homo sapiens, UniProt Q8IW41)
T6 sequence (Q8IW41 1-473): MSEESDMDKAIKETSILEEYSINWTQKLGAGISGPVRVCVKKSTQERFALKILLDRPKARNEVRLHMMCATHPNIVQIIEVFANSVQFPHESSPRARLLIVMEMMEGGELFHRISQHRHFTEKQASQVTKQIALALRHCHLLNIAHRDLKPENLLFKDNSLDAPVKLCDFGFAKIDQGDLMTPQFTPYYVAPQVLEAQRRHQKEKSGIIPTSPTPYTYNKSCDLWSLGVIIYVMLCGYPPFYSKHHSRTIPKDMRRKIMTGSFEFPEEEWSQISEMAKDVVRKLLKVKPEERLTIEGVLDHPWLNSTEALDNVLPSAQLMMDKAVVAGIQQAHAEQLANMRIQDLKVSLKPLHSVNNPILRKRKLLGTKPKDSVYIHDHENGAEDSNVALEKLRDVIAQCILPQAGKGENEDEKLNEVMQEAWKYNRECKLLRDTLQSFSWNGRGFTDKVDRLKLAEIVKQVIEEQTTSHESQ
Procedure, shortened: as §1

Ron (h) = Ron (h) (Homo sapiens, UniProt Q04912)
Procedure, shortened: as §1

SAPK2b (h) = SAPK2b (h) (Homo sapiens, UniProt Q15759)
Sequence of SAPK2b (h) (Q15759 whole entry): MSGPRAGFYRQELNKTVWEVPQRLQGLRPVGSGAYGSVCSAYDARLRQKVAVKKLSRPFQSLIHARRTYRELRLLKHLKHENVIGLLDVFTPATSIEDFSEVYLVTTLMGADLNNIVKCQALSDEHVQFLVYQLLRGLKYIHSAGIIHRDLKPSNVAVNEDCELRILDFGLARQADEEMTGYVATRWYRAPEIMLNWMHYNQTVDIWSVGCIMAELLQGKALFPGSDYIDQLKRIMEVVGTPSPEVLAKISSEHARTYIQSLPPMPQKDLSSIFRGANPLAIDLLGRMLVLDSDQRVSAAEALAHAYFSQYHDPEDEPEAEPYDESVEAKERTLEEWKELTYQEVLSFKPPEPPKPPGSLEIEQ
Procedure, shortened: as §1

Sequence: FAKLAARLYRKALARQLGVAA [MMI-0300]
- % activity (EphA3 (h)): 6%
- % activity (Fyn (h)): 74%
- % activity (NLK (h)): 87%
- % activity (PAK5 (h)): 110%
- % activity (PKBα (h)): 57%
- % activity (PRAK (h)): 128%
- % activity (Ron (h)): 93%
- % activity (SAPK2b (h)): 81%

Sequence: HRRIKAWLKKIKALARQLGVAA (Mammalian) [MMI-0500]
- % activity (EphA3 (h)): 33%
- % activity (Fyn (h)): 83%
- % activity (NLK (h)): 19%
- % activity (PAK5 (h)): 125%
- % activity (PKBα (h)): 30%
- % activity (PRAK (h)): 95%
- % activity (Ron (h)): 46%
- % activity (SAPK2b (h)): 42%

Sequence: KAFAKLAARLYRKALARQLGVAA [MMI-0400]
- % activity (EphA3 (h)): 12%
- % activity (Fyn (h)): 54%
- % activity (NLK (h)): 90%
- % activity (PKBα (h)): 67%
- % activity (PRAK (h)): 118%
- % activity (Ron (h)): 79%
- % activity (SAPK2b (h)): 82%

Sequence: YARAAARQARAKALNRQLGVA (Mammalian) [MMI-0200]
- % activity (Fyn (h)): 75%
- % activity (PAK5 (h)): 100%
- % activity (PKBα (h)): 110%
- % activity (Ron (h)): 120%
- % activity (SAPK2b (h)): 95%
